Experiments:
WEN1.3 cells = experiment: Endogenous IL-10 secretion (ELISA) in WEN1.3 hybridoma cells; type: cell-based; settings: for Fold change (IL-10 concentration in supernatant): 0 ng vs. 100 ng RR120/mL, 24 h
Procedure: WEN1.3 cells (See Pogson M et al., Nat. Commun., 2016, 7:12535) were cultivated in DMEM (52100039, Thermo Fisher) supplemented with 10% (v/v) heat-inactivated FBS (F7524, lot BCBS0318V, Sigma-Aldrich), 1% (v/v) streptomycin/penicillin (L0022, Biowest), 10 mM HEPES buffer (Ser. No. 15/630,056, Thermo Fisher), and […] 2-mercaptoethanol (M3148, Sigma-Aldrich) in a humidified atmosphere of 5% CO2 in air at 37° C. Cells were transfected by electroporation with program CQ-104 of the 4D-Nucleofector System (Lonza) and the SF Cell Line 4D-Nucleofector X Kit L (V4XC-2024, Lonza).
For each transfection 1×10^6 cells were washed twice by centrifugation for 5 min at 90 g and then resuspended in 1 mL of Opti-MEM I Reduced Serum Medium (31985062, Thermo Fisher); after washing, the cells were resuspended in 100 μL Lonza SF buffer containing 0.5 μg sleeping beauty transposase expression plasmid (pCMV(CAT)T7-SB100) and 9.5 μg of a plasmid for stable integration and expression of JAK/STAT-GEMS (pLeo695) or MAPK-GEMS (pLeo694). After pulsing, 500 μL prewarmed culture medium was added for 10 min. Cells were transferred to 1 mL culture media in 24-well plates (142475, Thermo Fisher) and were grown for 48 h. For creating stable cell lines, cells were transferred to 3 mL culture media in 6-well plates (140675, Thermo Fisher) and were selected with 5 μg/mL puromycin (ANT-PR-1, InvivoGen) for 14 d. For experiments, cells were centrifuged for 5 min at 90 g and resuspended in culture media (with or without RR120) to give a concentration of 1×10^6 cells/mL, and then 500 μL of the cell suspension was transferred per well of a 48-well plate. IL-10 ELISAs (900-TM53, PeproTech) were performed 24 h after induction.

[1] = system: JAK/STAT signaling through STAT3; experiment: C-STAR caffeine-inducible STAT3 SEAP reporter assay in HEK-293T cells; type: cell-based, human; settings: 1 μM concentration; C-STARDB1 cells; FIG. 22
Procedure: All cells were cultured in a humidified atmosphere containing 5% CO2 at 37° C.

[2] = cited from earlier work
[3] = system: JAK/STAT signaling (STAT3 reporter); experiment: GEMS STAT3-responsive SEAP reporter assay in HEK-293T cells; type: cell-based, human; settings: for Fold change (SEAP reporter): 24 h induction; for Response to erythropoietin: FIG. 5B, with / without F93A modification of EpoR
Procedure: (§1) Human embryonic kidney cells (HEK-293T, American Type Culture Collection (ATCC): CRL-11268) were cultivated in Dulbecco's modified Eagle's medium (DMEM; 52100039, Thermo Fisher) supplemented with 10% (v/v) FBS (F7524, lot BCBS0318V, Sigma-Aldrich) and 1% (v/v) streptomycin/penicillin (L0022, Biowest) in a humidified atmosphere of 5% CO2 in air at 37° C. For experiments, 1.5×10^6 cells in 12 mL DMEM were seeded into 96-well plates (167008, Thermo Fisher) 24 h before transfection. The transfection mix in each well consisted of 125-130 ng of plasmid DNA mixed with 50 μL FBS and antibiotics-free DMEM and 600 ng of polyethyleneimine (24765-1, Polysciences, Inc.). The transfection mix was prepared separately, incubated for 20 min and then added to the cells for overnight transfection. In the morning, medium with the transfection mix was exchanged for 130 μL/well medium with different concentrations of the appropriate inducer or no inducer as a negative control. Reporter output was measured 24 h after induction for all experiments. Plasmid amounts used for transfections per set of six wells of a 96-well plate were as follows:
FIG. 3B; FIG. 4B: 5 ng for each receptor subunit or as indicated in the figure, 150 ng STAT3 reporter plasmid (pLS13), 25 ng STAT3 expression vector (pLS15) and […] (or the appropriate amount to make a total of 775 ng) of a plasmid without mammalian promoter (pDF145).
FIGS. 5A-C; FIG. 6A; FIG. 8; FIG. 9; FIGS. 10A-B; FIGS. 11A-C; FIG. 12; FIGS. 13A-B: 600 ng of receptor plasmids (for heterodimeric receptors 300 ng of each subunit) and for STAT readout 150 ng of a STAT3 reporter plasmid (pLS13) and 25 ng of a STAT3 expression vector (pLS15); for MAPK-readout 75 ng of a TetR reporter plasmid (pMF111) and 100 ng of a TetR-Elk1 fusion expression vector (MKp37); for NFAT readout 175 ng of a NFAT reporter plasmid (pHY30) and for NF-κB readout 175 ng of a NF-κB reporter plasmid (pKR32).
SEAP concentrations in cell culture supernatants were quantified in terms of absorbance increase due to hydrolysis of para-nitrophenyl phosphate (pNPP). 80 μL of heat-inactivated (30 min at 65° C., then centrifuged for 1 min, 3,220 g) supernatant was mixed in a 96-well dish with 100 μL of 2×SEAP buffer (20 mM homoarginine, 1 mM MgCl2, 21% (v/v) diethanolamine, pH 9.8) and 20 μL of substrate solution containing 20 mM pNPP (Acros Organics BVBA). Samples were measured at 405 nm with a Tecan Genios PRO multiplate reader (Tecan AG) or an EnVision 2104 multilabel reader (PerkinElmer). SEAP production in vivo was quantified with the chemiluminescence SEAP reporter gene assay (cat. no. 11779842001, Sigma-Aldrich) according to the manufacturer's instructions.

[4] = system: NFAT, STAT3 and MAPK signaling; experiment: GEMS pathway crosstalk reporters (FIG. 13A-B) in HEK-293T cells; type: cell-based, human
Procedure: as §1, with “In the morning, medium with the transfection mix was exchanged for 130 μL/well medium with different concentrations of the appropriate inducer or no inducer as a negative control.” left out, “Plasmid amounts used for transfections per set of six wells of a 96-well plate were as follows:” left out
FIGS. 5A-C; FIG. 6A; FIG. 8; FIG. 9; FIGS. 10A-B; FIGS. 11A-C; FIG. 12; FIGS. 13A-B: 600 ng of receptor plasmids (for heterodimeric receptors 300 ng of each subunit) and for STAT readout 150 ng of a STAT3 reporter plasmid (pLS13) and 25 ng of a STAT3 expression vector (pLS15); for MAPK-readout 75 ng of a TetR reporter plasmid (pMF111) and 100 ng of a TetR-Elk1 fusion expression vector (MKp37); for NFAT readout 175 ng of a NFAT reporter plasmid (pHY30) and for NF-κB readout 175 ng of a NF-κB reporter plasmid (pKR32). […]

[5] = molecular target: SunTag8×-mCherry fusion protein; experiment: cell-based or functional assay

For O=S(=O)(O)c1cc(Nc2nc(Cl)nc(Nc3ccc(Nc4nc(Cl)nc(Nc5cc(S(=O)(=O)O)cc6cc(S(=O)(=O)O)c(N=Nc7ccccc7S(=O)(=O)O)c(O)c56)n4)cc3)n2)c2c(O)c(N=Nc3ccccc3S(=O)(=O)O)c(S(=O)(=O)O)cc2c1 [RR120, reactive red 120, reference compound], the “Fold change (IL-10 concentration in supernatant)” value (WEN1.3 cells; WT WEN1.3 cells (no receptor)) was 1.1 fold.

With Cn1c(=O)c2[nH]cnc2n(C)c1=O [theophylline] the “Cross-activation of C-STAR by caffeine analogs” value [1] was “modest cross-activation”.

In the case of Cn1c(=O)c2c(ncn2C)n(C)c1=O [caffeine], the “Half-life of caffeine in human blood” value [2] is listed as “approximately five”.

B1: JAK/STAT-GEMSRR120: PSV40-VHHA52-EpoRm-IL-6RBm-pA; optimized chimeric receptor (GEMS device) targeting RR120, JAK/STAT signaling (protein)
chain: VQLQESGGGLVQAGDSLKLSCEASGDSIGTYVIGWFRQAPGKERIYLATIGRNLVGPSDFYTRYADSVKGRFAVSRDNAKNTVNLQMNSLKPEDTAVYYCAAKTTTWGGNDPNNWNYWGQGTQVTVSGEFAPSPSLPDPKFESKAALLASRGSEELLCFTQRLEDLVCFWEEAASSGMDFNYSFSYQLEGESRKSCSLHQAPTVRGSVRFWCSLPTADTSSAVPLELQVTEASGSPRYHRIIHINEVVLLDAPAGLLARRAEEGSHVVLRWLPPPGAPMTTHIRYEVDVSAGNRAGGTQRVEVLEGRTECVLSNLRGGTRYTFAVRARMAEPSFSGFWSAWSEPASLLTASDLDPLILTLSLILVLISLLLTVLALLSAAANKRDLIKKHIWPNVPDPSKSHIAQWSPHTPPRHNFNSKDQMYSDGNFTDVSVVEIEANDKKPFPEDLKSLDLFKKEKINTEGHSSGIGGSSCMSSSRPSISSSDENESSQNTSSTVQASTVVHSGYRHQVPSVQVFSRSESTQPLLDSEERPEDLQLVDHVDGGDGILPRQQYFKQNCSQHESSPDISHFERSKQVSSVNEEDFVRLKQQISDHISQSCGSGQMKMFQEVSAADAFGPGTEGQVERFETVGMEAATDEGMPKSYLPQTVRQGGYMPQ
In the case of B1, the “Fold change (SEAP reporter)” value ([3]; 0 ng vs. 1 ng RR120/mL) is reported as 5.4 fold, the “Fold change (SEAP reporter)” value ([3]; 0 ng vs. 100 ng RR120/mL) is reported as 45 fold and the Response to erythropoietin [3] is reported as “induced with RR120 but not with erythropoietin”. For the same molecule, the “Ratio of induced versus noninduced SEAP secretion (signal-to-noise ratio)” value ([3]; RR120 as inducer, FIG. 5C) was “over 40 fold”, the “IL-10 secretion upon GEMS activation by RR120” value (WEN1.3 cells; FIG. 14) was “substantially increased IL-10 secretion” and the “Fold change (IL-10 concentration in supernatant)” value (WEN1.3 cells; stable polyclonal WEN1.3 cell line expressing the receptor) was 1.5 fold. The “Crosstalk to other signaling pathways” value [4] was “cancelled the interference with MAPK signaling”.

B2: pLeo618: PSV40-VHHA52-EpoR3A-IL-6RBm-pA; receptor with Y759A, without F93A modification (protein)
chain: VQLQESGGGLVQAGDSLKLSCEASGDSIGTYVIGWFRQAPGKERIYLATIGRNLVGPSDFYTRYADSVKGRFAVSRDNAKNTVNLQMNSLKPEDTAVYYCAAKTTTWGGNDPNNWNYWGQGTQVTVSGEFAPSPSLPDPKFESKAALLASRGSEELLCFTQRLEDLVCFWEEAASSGMDFNYSFSYQLEGESRKSCSLHQAPTVRGSVRFWCSLPTADTSSFVPLELQVTEASGSPRYHRIIHINEVVLLDAPAGLLARRAEEGSHVVLRWLPPPGAPMTTHIRYEVDVSAGNRAGGTQRVEVLEGRTECVLSNLRGGTRYTFAVRARMAEPSFSGFWSAWSEPASLLTASDLDPLILTLSLILVLISLLLTVLALLSAAANKRDLIKKHIWPNVPDPSKSHIAQWSPHTPPRHNFNSKDQMYSDGNFTDVSVVEIEANDKKPFPEDLKSLDLFKKEKINTEGHSSGIGGSSCMSSSRPSISSSDENESSQNTSSTVQASTVVHSGYRHQVPSVQVFSRSESTQPLLDSEERPEDLQLVDHVDGGDGILPRQQYFKQNCSQHESSPDISHFERSKQVSSVNEEDFVRLKQQISDHISQSCGSGQMKMFQEVSAADAFGPGTEGQVERFETVGMEAATDEGMPKSYLPQTVRQGGYMPQ
For B2, the Response to erythropoietin [3] was “respond strongly to erythropoietin”.

B3: JAK/STAT-GEMSSunTag (pLeo620; scFvαGCN4-EpoRm-IL-6RBm) (receptor, part only; not given: Signal peptide and scFv-EpoR linker, part only)
chain, part: DIVMTQSPSSLSASVGDRVTITCRSSTGAVTTSNYASWVQEKPGKLFKGLIGGTNNRAPGVPSRFSGSLIGDKATLTISSLQPEDFATYFCALWYSNHWVFGQGTKVELKRGGGGSGGGGSGGGGSSGGGSEVKLLESGGGLVQPGGSLKLSCAVSGFSLTDYGVNWVRQAPGRGLEWIGVIWGDGITDYNSALKDRFIISKDNGKNTVYLQMSKVRSDDTALYYCVTGLFDYWGQGTLVTVSAPSPSLPDPKFESKAALLASRGSEELLCFTQRLEDLVCFWEEAASSGMDFNYSFSYQLEGESRKSCSLHQAPTVRGSVRFWCSLPTADTSSAVPLELQVTEASGSPRYHRIIHINEVVLLDAPAGLLARRAEEGSHVVLRWLPPPGAPMTTHIRYEVDVSAGNRAGGTQRVEVLEGRTECVLSNLRGGTRYTFAVRARMAEPSFSGFWSAWSEPASLLTASDLDPLILTLSLILVLISLLLTVLALLSAAANKRDLIKKHIWPNVPDPSKSHIAQWSPHTPPRHNFNSKDQMYSDGNFTDVSVVEIEANDKKPFPEDLKSLDLFKKEKINTEGHSSGIGGSSCMSSSRPSISSSDENESSQNTSSTVQASTVVHSGYRHQVPSVQVFSRSESTQPLLDSEERPEDLQLVDHVDGGDGILPRQQYFKQNCSQHESSPDISHFERSKQVSSVNEEDFVRLKQQISDHISQSCGSGQMKMFQEVSAADAFGPGTEGQVERFETVGMEAATDEGMPKSYLPQTVRQGGYMPQ
For B3, the Fold change of MAPK reporter (NanoLuc), 0% vs. 0.002 % (v/v) bacterial lysate (SunTag), cells co-transfected with MAPK-GEMSRR120 (Y677F), FIG. 13C [5] was 1.3 fold, the Fold change of SEAP, 0 % vs. 0.002 % (v/v) bacterial lysate (SunTag), FIG. 10A [5] was 6.9 fold and the Fold change of SEAP, 0 % vs. 0.02 % (v/v) bacterial lysate (SunTag), FIG. 10A [5] was 30 fold. It also gave a Fold change of STAT3 reporter (SEAP), 0% vs. 0.002 % (v/v) bacterial lysate (SunTag), cells co-transfected with MAPK-GEMSRR120 (Y677F), FIG. 13C [5] of 12.9 fold and a Fold change of STAT3 reporter (SEAP), no inducer vs. 100 ng RR120/mL + 0.002 % (v/v) bacterial lysate (SunTag), cells co-transfected with MAPK-GEMSRR120 (Y677F), FIG. 13C [5] of 14.9 fold.
